Key:
[1] = molecular target: T1, epidermal growth factor receptor (EGFR) on human lung cancer cell line A549 (human, UniProt P00533 25-1210); assay: flow cytometry on cells (A549), detected with rabbit antiserum and goat anti-rabbit IgG-FITC
T1 construct: whole, on cells; also called 表皮生长因子受体

[2] = molecular target: T1, epidermal growth factor receptor (EGFR) …; assay: immunofluorescence and flow cytometry on A549 cells (summary)

Binder	binding result [1]	binding result [2]
recombinant Gelonin (重组Gelonin) (enzyme, also called rGel) GLDTVSFSTKGATYITYVNFLNELRVKLKPEGNSHGIPLLRKKCDDPGKCFVLVALSNDNGQLAEIAIDVTSVYVVGYQVRNRSYFFKDAPDAAYEGLFKNTIKTRLHFGGSYPSLEGEKAYRETTDLGIEPLRIGIKKLDENAIDNYKPTEIASSLLVVIQMVSEAARFTFIENQIRNNFQQRIRPANNTISLENKWGKLSFQIRTSGANGMFSEAVELERANGKKYYVTAVDQVKPKIALLKFVDKDPK	no binding (tested: 100umol/L)	
SCFV(Anti-EGFR)/Gelonin recombinant immunotoxin (抗EGFR单链抗体融合Gelonin重组免疫毒素) (other, also called ScFv(Anti-EGFR)/rGel) EVQLQQSGAELMKPGASVKISCKATGYTFSSYWIEWVKQRPGHGLEWIGEILPGSKKTNYNEKFKGKATFTADTSSNTAYMQFSSLTSEDSAVYYCARYYYRNDDYGMDYWGQGTTVTVSSGGGGSGGGGSGGGGSDIVMSQSPKSMSMSVGERVTLTCKASENVVTYVSWYQQKPEQSPKLLIYGASNRYTGVPDRFTGSGSATDFTLTISSVQAEDLADYHCGQGCSYPYTFGGGTKLEIKGSGGGGSGGGGSGLDTVSFSTKGATYITYVNFLNELRVKLKPEGNSHGIPLLRKKCDDPGKCFVLVALSNDNGQLAEIAIDVTSVYVVGYQVRNRSYFFKDAPDAAYEGLFKNTIKTRLHFGGSYPSLEGEKAYRETTDLGIEPLRIGIKKLDENAIDNYKPTEIASSLLVVIQMVSEAARFTFIENQIRNNFQQRIRPANNTISLENKWGKLSFQIRTSGANGMFSEAVELERANGKKYYVTAVDQVKPKIALLKFVDKDPK		binds
